For test [1], the target named is T1, Human CD16a (158F)-his (human).
T1 construct: entry holds ECD, AVI tag, linker and His tag
The experiment in a line: SPR (Biacore), antibody captured on Protein A. In a few lines: (§1)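 Protein A–captured antibody was probed with CD16-his ECD in HBS-EP+ at 25 °C: five 2-fold dilutions from 200 nM, 240 s at 30 μL/min, dissociation up to 600 s. Glycine pH 1.5 regenerated the chip. Apparent KD came from a double-referenced 1:1 Langmuir fit.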
In general terms: SPR reads the build-up and loss of mass on a sensor chip optically.

The target of test [2] is T2, human CD16a (158F), full length, on FlpinCHO cells (human, UniProt P08637 17-254). Briefly: FACS on FlpinCHO cells. The protocol: (§2) The required cells were scale-up cultured in a T-75 cell culture flask to the logarithmic growth phase. The medium was aspirated, and the cells were washed twice with a PBS buffer and then digested with trypsin. After the digestion was terminated, the cells were washed twice with the PBS buffer. The cells were counted, and then the cell pellet was resuspended with a [PBS+2% (w/w) BSA] blocking solution to 2×10⁶ cells/ml, and added to a 96-well FACS reaction plate at 50 μl/well. […] 50 μl/well of the antibody to be detected was added at different concentrations, and incubated on ice for 1 hour. […] The mixture was centrifuged and washed 5 times with PBS, and FACS (FACS Canto II, purchased from BD Company) was used for detection and result analysis. Data analysis was performed by software (CellQuest) to obtain the mean fluorescence intensity (MFI) of the cells. Then, software (GraphPad Prism8) was used for analysis, data fitting and EC50 value calculation.
(§3) The binding of a humanized antibody to FlpinCHO-human CD16a cells was detected according to the method of Example 3.1.

Test [3] has as its target T3, human CD16a (158V), full length, on cells (human, UniProt P08637 17-254).
T3 construct: also used as target for the bought Jurkat-NFAT reporter line stably expressing human CD16a (158V); also called FlpinCHO-human CD16a (158V); FlpinCHO-CD16a (158V)
Briefly: FACS on FlpinCHO cells. The protocol: as §2, §3

Test [4] deals with T4, human CD16b (NA2), full length, on FlpinCHO cells (human, UniProt O75015 17-200).
T4 construct: also called FlpinCHO-human CD16b (NA2)
T4 chain: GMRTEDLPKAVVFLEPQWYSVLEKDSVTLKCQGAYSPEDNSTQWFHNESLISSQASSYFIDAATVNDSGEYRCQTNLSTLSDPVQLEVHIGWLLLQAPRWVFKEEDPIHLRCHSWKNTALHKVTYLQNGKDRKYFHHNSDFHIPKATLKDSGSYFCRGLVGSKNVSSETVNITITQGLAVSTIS
The experiment in a line: FACS on FlpinCHO cells. The protocol:
as §2
(§4) The binding of an antibody to be detected to FlpinCHO-human CD16b cells was detected according to the method of Example 3.1.

The target of test [5] is T5, human CD16b (NA1), full length, on FlpinCHO cells (human, UniProt O75015 17-200).
T5 construct: also called FlpinCHO-human CD16b (NA1)
T5 chain: T4 chain with S20R, S49N, N66D, I90V
The experiment in a line: FACS on FlpinCHO cells. How it is done:
as §2, §4

Test [6] deals with T6, cynomolgus monkey CD16, full length, on FlpinCHO cells (cynomolgus monkey, UniProt Q8SPW2 17-254).
T6 construct: also called FlpinCHO-cyno CD16; Flipin CHO-cyno CD16
T6 sequence (Q8SPW2 other isoform, or with tags, fused parts or gaps limits assumed): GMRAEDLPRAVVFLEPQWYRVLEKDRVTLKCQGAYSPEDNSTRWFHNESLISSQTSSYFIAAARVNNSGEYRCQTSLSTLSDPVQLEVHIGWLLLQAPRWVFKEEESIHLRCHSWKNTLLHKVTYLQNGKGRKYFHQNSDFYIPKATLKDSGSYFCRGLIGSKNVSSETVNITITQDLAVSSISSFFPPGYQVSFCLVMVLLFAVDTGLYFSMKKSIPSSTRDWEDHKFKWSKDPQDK
Briefly: FACS on FlpinCHO cells. How it is done: as §2
Flipin CHO-cyno CD16 cells were subjected to FACS detection and data analysis according to the method of Example 3.1.

The target in test [7] is T3, human CD16a (158V), full length, on …. Briefly: cell-based or functional assay.
Test [8] deals with T7, Human CD16b (NA1)-his (human).
T7 construct: entry holds ECD, linker, His tag and AVI tag
T7 chain: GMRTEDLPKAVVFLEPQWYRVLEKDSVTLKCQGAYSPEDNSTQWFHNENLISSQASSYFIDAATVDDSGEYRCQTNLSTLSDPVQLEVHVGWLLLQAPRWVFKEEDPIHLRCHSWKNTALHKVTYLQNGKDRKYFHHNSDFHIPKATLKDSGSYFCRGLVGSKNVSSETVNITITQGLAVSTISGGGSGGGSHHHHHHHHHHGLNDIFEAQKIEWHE
Briefly: SPR (Biacore), antibody captured on Protein A. In a few lines:
as §1

Test [9] concerns the target T8, Human CD16a (158V)-his (human).
T8 construct: entry holds ECD, AVI tag, linker and His tag
Briefly: SPR (Biacore), antibody captured on Protein A. In outline:
as §1

Test [10] has as its target T2, human CD16a (158F), full length, on …. Briefly: FACS, biotinylated antibody. In general terms: In flow cytometry, cells or beads pass a laser one at a time.
The target of test [11] is T3, human CD16a (158V), full length, on …. Briefly: FACS, biotinylated antibody.
Test [12] deals with T4, human CD16b (NA2), full length, on …. The experiment in a line: FACS on FlpinCHO cells. In a few lines:
(§5)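 Trypsin-detached FlpinCHO cells expressing full-length CD16b were blocked in PBS+2% BSA and incubated on ice for 1 hour with antibody at varying concentrations. Binding read by flow cytometry as MFI; EC50 from curve fitting.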

The target in test [13] is T5, human CD16b (NA1), full length, on …. Briefly: FACS on FlpinCHO cells. In outline:
as §5

In test [14] the target is T2, human CD16a (158F), full length, on …. Briefly: FACS on FlpinCHO cells. In outline:
(§6)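 Trypsinised cells in PBS + 2% BSA were incubated on ice for 1 hour with antibody at a range of concentrations. After washes, mean fluorescence intensity was read by flow cytometry. EC50 values were derived by curve fitting of MFI.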
The source holds these as a separate data set.

For test [15], the target named is T3, human CD16a (158V), full length, on …. The experiment in a line: FACS on FlpinCHO cells. In a few lines:
as §6
The source holds these as a separate data set.

The target is the same in test [16]. The experiment in a line: cell-based or functional assay. This is another data set of the same source.
For test [17], the target named is T2, human CD16a (158F), full length, on …. The experiment in a line: FACS, biotinylated antibody, +10 mg/mL human immunoglobulin.
The target of test [18] is T3, human CD16a (158V), full length, on …. Described as above.
Test [19] has as its target T9, CD16 on primary human NK cells (human, UniProt P08637 17-254).
T9 construct: whole, on cells; also called resting NK cells
The experiment in a line: FACS on human NK cells. The protocol:
as §2
The binding of an antibody to be detected to freshly prepared human NK cells (Milestone Biotechnologies, catalog number: PB56-N-Custom) was detected according to the method of Example 3.1.

Numbering of substitutions follows the chain as printed. Where two headings read alike, the source gives them in different places.

B1: VHH12-04 humanized VHH-Fc antibody (Fc fusion)
chain: EVQLVESGGGLVQPGGSLRLSCAASGITFSSYAMGWYRQAPGKQRELVAAINRFGLTNYADFVKGRFTISRDNAKNSLYLQMNSLRAEDTAVYYCNTGGVYSHPDYYTGTYWGQGTMVTVSSEPKSSDKTHTCPPCPAPEEFGGPSVFLFPPKPKDTLMISRTPEVTCVVVAVSHEDPEVKFNWYVDGVEVHNAKTKPREEQYNSTYRVVSVLTVLHQDWLNGKEYKCKVSNKALPAPIEKTISKAKGQPREPQVYTLPPSREEMTKNQVSLTCLVKGFYPSDIAVEWESNGQPENNYKTTPPVLDSDGSFFLYSKLTVDKSRWQQGNVFSCSVMHEALHNHYTQKSLSLSPGK
For the molecule B1, in [1], binding was put at a Kd of 50.5 nM, the koff (commonly the rate constant with which the complex falls apart) was determined as 0.0307 s⁻¹ and the kon (usually the second-order rate constant of association) turned out to be 607000 M⁻¹ s⁻¹. For the same molecule, in [2], the EC50 (in general, the concentration needed to bring the measured effect to its halfway point) came out at 0.47 nM and the “Maximum mean fluorescence intensity” value worked out at 9410. In test [3], a half-maximal response (EC50) required 0.47 nM and the “Maximum mean fluorescence intensity” value is 8090. In addition, in test [4], the “Maximum mean fluorescence intensity” value is 75400. Moreover, in test [5], the response was half-maximal at 1.37 nM (EC50) and the “Maximum mean fluorescence intensity” value is 47200. Further, in test [6], it took 0.64 nM to reach a half-maximal effect (EC50) and the “Maximum mean fluorescence intensity” value was found to be 18300. In [7], the “EC50, activation activity for Jurkat cell” value (“EC50, activation activity” below) is 0.01 nM and the Maximum fluorescence value came out at 162000.

B2: VHH12-03 humanized VHH-Fc antibody (Fc fusion)
chain: B1 chain with A60V, F62S
With B2, in test [1], the dissociation constant Kd (usually the concentration at which binding is half-saturated) came out at 55.7 nM. The molecule also showed a koff in test [1] of 0.0244 s⁻¹. In addition, in [1], the kon was 438000 M⁻¹ s⁻¹. The EC50 was 0.48 nM in test [2], 0.48 nM in [3], 1.37 nM in test [5] and 0.8 nM in test [6]. Further, the “Maximum mean fluorescence intensity” value in test [2] was determined as 8810; in test [3] it was 7750; in [4], 72700; in [5], 47300; in test [6] it was 18000. Also, the “EC50, activation activity” value in test [7] is 0.02 nM. Also, in [7], the Maximum fluorescence value was 155000.

B3: VHH12-08 humanized VHH-Fc antibody (Fc fusion)
chain: B1 chain with D72V
B3 returned a Kd in [1] of 48.6 nM. This molecule also returned a dissociation rate constant (koff) in [1] of 0.0294 s⁻¹. This molecule came in with a kon in test [1] of 605000 M⁻¹ s⁻¹. Also, the EC50 in [2] was determined as 0.31 nM; in [3] it was 0.32 nM; in [5] it was 0.98 nM; in test [6], 0.44 nM. For the same molecule, the “Maximum mean fluorescence intensity” value in test [2] amounted to 9010; in test [3], 7920; in test [4] it was 77300; in test [5] it was 52100; in test [6], 18300. Further, the “EC50, activation activity” value in [7] turned out to be 0.01 nM. The Maximum fluorescence value in test [7] amounted to 142000.

B4: VHH12-07 humanized VHH-Fc antibody (Fc fusion)
chain: B1 chain with A60V, F62S, M117Q
Consider B4, for which, in test [1], the Kd is 55.8 nM, the koff is 0.032 s⁻¹ and the kon stood at 574000 M⁻¹ s⁻¹. For the same molecule, in [2], the EC50 amounted to 0.46 nM and the “Maximum mean fluorescence intensity” value was 9180. In addition, in test [3], the EC50 came to 0.48 nM and the “Maximum mean fluorescence intensity” value was 7950. In addition, in test [4], the “Maximum mean fluorescence intensity” value came to 73200. In addition, in test [5], the half-maximal effective concentration (EC50) was 1.25 nM and the “Maximum mean fluorescence intensity” value turned out to be 45500. Besides, in [6], the EC50 came to 0.68 nM and the “Maximum mean fluorescence intensity” value worked out at 18500. In [7], the “EC50, activation activity” value is 0.03 nM and the Maximum fluorescence value was determined as 153000.

B5: VHH04 VHH-Fc antibody (Fc fusion)
chain: QVQLVESGGGLVQAGGSLRLSCVGSSSTLTTYAVRWYRQAPGKQREWVAFISVDGNTNYPDSVKGRFIVSRDNAKNTVYLQMNNLKPEDTADYICRAGGQYWGQGTQVTVSSEPKSSDKTHTCPPCPAPEFEGGPSVFLFPPKPKDTLMISRTPEVTCVVVAVSHEDPEVKFNWYVDGVEVHNAKTKPREEQYNSTYRVVSVLTVLHQDWLNGKEYKCKVSNKALPAPIEKTISKAKGQPREPQVYTLPPSREEMTKNQVSLTCLVKGFYPSDIAVEWESNGQPENNYKTTPPVLDSDGSFFLYSKLTVDKSRWQQGNVFSCSVMHEALHNHYTQKSLSLSPGK
For the molecule B5, the figures for the dissociation constant (Kd) in test [8], in [9] and in test [1] were 21.6 nM, 8.93 nM and 23.4 nM, respectively. In addition, the koff in [8] came out at 0.00265 s⁻¹; in [9], 0.000738 s⁻¹; in test [1] it was 0.00128 s⁻¹. In addition, the figures for the kon in test [8], in test [9] and in test [1] were 122000 M⁻¹ s⁻¹, 82600 M⁻¹ s⁻¹ and 54700 M⁻¹ s⁻¹, respectively. In addition, the EC50 is 0.32 nM in [10]; 0.65 nM in test [11]; 1.33 nM in test [13]; 0.66 nM in [14]; 0.68 nM in test [15]; 1.51 nM in [17]. In addition, the EC50 in [18] was 1.51 nM; in [19] it was 0.74 nM. Moreover, the “Maximum mean fluorescence intensity” value in test [10] worked out at 6160; in [11], 9200; in [12], 351; in test [13], 41400; in test [14] it was 7240; in [15], 7660. In addition, the figures for the “Maximum mean fluorescence intensity” value in test [17], in test [18] and in test [19] were 7580, 10400 and 2430, respectively. The binding result in [12] is on record as “no binding (tested: 100 nM)”. The “EC50, activation activity” value in test [16] worked out at 0.03 nM. Further, in [16], the Maximum fluorescence value was determined as 161000.
